Read-outs that look alike come from different tables or passages of the source.
How the values were obtained:
Human CD122 [1] = molecular target: T1, Human CD122 (human, UniProt P14784 27-551); test: cell-based or functional assay
T1 sequence: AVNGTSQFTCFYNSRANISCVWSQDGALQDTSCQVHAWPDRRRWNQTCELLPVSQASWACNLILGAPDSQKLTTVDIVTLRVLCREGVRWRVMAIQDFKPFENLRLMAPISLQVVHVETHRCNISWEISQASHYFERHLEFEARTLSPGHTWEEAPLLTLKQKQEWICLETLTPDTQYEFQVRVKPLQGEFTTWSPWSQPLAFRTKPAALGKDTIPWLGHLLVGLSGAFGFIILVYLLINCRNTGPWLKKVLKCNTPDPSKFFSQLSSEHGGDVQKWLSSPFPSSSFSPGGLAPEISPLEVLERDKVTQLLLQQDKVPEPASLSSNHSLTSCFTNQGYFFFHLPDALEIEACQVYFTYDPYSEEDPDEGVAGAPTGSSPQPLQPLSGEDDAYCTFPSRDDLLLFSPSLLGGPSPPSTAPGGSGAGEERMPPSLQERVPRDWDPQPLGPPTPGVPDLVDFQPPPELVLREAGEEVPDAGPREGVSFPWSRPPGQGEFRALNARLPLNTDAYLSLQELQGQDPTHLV

Human CD122 [2] = molecular target: T1, Human CD122; test: flow cytometry (FACS) on huIL15Rβ-transfected CHO-K1 cells, anti-human IgG-FITC, GeoMFI
Description: (§1) Purified IgGs were tested in FACs for binding to human and rhesus CD122 expressed on CHO-K1 stable cell lines and CHO-K1 wild-type cells. The IgG samples were titrated in three-fold serial dilutions starting at 500 nM to […]. Binding of IgGs was detected with a mouse anti-human IgG conjugated to FITC. Results were analyzed by examining the Mean Fluorescence Intensity (MFI) of 10000 cells per sample in the BL-1 channel detector of a flow cytometer (AttuneTM NxT Acoustic Focusing Cytometer, Invitrogen/ ThermoFisher Scientific).

Rhesus CD122 [3] = molecular target: T2, Rhesus CD122 (rhesus monkey, UniProt Q38J85 27-551 (cynomolgus entry)); test: flow cytometry (FACS) on rhIL15Rβ-transfected CHO-K1 cells, anti-human IgG-FITC, GeoMFI
T2 construct: also called rhCD122 on cells
T2 sequence: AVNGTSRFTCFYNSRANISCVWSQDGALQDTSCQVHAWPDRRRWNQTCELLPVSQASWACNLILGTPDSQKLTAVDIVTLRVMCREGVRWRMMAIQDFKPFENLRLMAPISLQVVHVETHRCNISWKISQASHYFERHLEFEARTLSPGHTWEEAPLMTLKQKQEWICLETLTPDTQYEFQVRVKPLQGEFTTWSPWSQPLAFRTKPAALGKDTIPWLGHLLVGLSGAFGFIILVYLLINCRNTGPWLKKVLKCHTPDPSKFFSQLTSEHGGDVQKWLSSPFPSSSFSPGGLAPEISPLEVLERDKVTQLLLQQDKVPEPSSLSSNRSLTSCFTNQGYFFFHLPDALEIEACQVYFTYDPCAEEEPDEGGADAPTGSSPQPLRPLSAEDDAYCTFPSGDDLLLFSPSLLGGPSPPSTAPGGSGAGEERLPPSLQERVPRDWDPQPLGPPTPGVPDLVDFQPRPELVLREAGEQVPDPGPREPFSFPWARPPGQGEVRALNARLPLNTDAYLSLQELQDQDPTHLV
Description: as §1

Rhesus CD122 [4] = molecular target: T2, Rhesus CD122; test: as above; remark: listed apart in the source
Description: as §1

Human CD122 [5] = molecular target: T1, Human CD122; test: flow cytometry (FACS) on huIL15Rβ-transfected CHO-K1 cells, anti-human IgG-FITC, GeoMFI; remark: listed apart in the source
Description: as §1

Human CD122 [6] = molecular target: T1, Human CD122; test: as above; remark: listed apart in the source
Description: as §1

Human CD122 [7] = molecular target: T1, Human CD122; test: as above; remark: listed apart in the source
Description: as §1

CD20 = molecular target: T3, CD20 (human, UniProt P11836 1-297); test: Retrogenix cell microarray: fixed HEK293 cells reverse-transfected with the target, AF647 anti-human IgG detection
T3 construct: whole, on cells; Control target; also called MS4A1
T3 sequence (looked up): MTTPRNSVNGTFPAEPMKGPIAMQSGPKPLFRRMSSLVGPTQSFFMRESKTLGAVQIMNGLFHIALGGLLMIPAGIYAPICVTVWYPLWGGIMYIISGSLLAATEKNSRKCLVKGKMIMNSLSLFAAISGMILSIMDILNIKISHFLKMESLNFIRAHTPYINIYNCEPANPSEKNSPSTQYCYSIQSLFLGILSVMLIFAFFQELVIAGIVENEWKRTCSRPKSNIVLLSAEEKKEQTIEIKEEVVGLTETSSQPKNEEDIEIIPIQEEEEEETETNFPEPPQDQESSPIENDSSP
Description: (§2) Slides were analyzed as above.
(§3) The plasmid samples for control and potential target receptors were then re-arrayed onto new chips for repeat analyses in duplicate. […] Control experiments using the same cells but no primary antibody (FIG. .

EGFR = molecular target: T4, EGFR (human, UniProt P00533 25-1210); test: as above
T4 construct: whole, on cells; Control target on the confirmation array
Description: as §2, §3

[8] = molecular target: T5, Human CD122 human Fc tagged recombinant protein (human, UniProt P14784 27-240); test: Alphascreen epitope competition: unlabelled VillMAb-1 at log10 -1.9 to 2 nM against VillMab-1 binding to human CD122-Fc (self-competition); CPS (crosstalk-corrected)
T5 construct: also called human CD122-Fc; not shown: human Fc tag
T5 sequence: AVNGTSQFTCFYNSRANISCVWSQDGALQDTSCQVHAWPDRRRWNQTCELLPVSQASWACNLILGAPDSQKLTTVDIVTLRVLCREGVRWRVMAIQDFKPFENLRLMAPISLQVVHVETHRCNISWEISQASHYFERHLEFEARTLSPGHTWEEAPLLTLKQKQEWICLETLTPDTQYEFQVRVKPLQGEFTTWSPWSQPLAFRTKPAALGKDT

B1: IgG1-MIKβ1 (humanized) (antibody, V domains shown)
VH: EVQLLESGGGLVQPGGSLRLSCAASGFSVTSYGVHWIRQAPGKGLEWLGVIWSGGSTDYNAAFISRLTISKDNSKNTVYFQMNSLQAEDTAIYYCARAGDYNYDGFAYWGQGTLVTVSS
VL: DIVLTQSPSSLSASVGDRVTITCSGSSSVSFMYWYQQRPGKAPRLLIYDTSNLASGVPSRFSGSGSGTSYTFTISSLQPEDIATYYCQQWSTYPLTFGQGTKVEVK
notes: also called VillMab-1; VillMAB-1
- IC50, IL-15-induced M07e cell proliferation (Human CD122 [1]): 9.79 µg/mL
- EC50 (read off the curve) (Human CD122 [2]): ~0.9 nM
- EC50 (read off the curve) (Rhesus CD122 [3]): ~0.7 nM
- EC50 (read off the curve) (Rhesus CD122 [4]): ~0.6 nM
- EC50 (read off the curve) (Human CD122 [5]): ~0.9 nM
- EC50 (read off the curve) (Human CD122 [6]): ~0.9 nM
- EC50 (read off the curve) (Human CD122 [7]): ~0.9 nM
- binding result (CD20): no binding (tested: 5 µg/ml)
- binding result (EGFR): no binding (tested: 5 µg/ml)
- IC50 (read off the curve) [8]: ~2 nM
